Here are results for 1 substance from patent publication US20070054271A1.

Assay [1] addresses putative CXCL14 receptor (CXCL14-binding cell surface protein(s)) on breast epithelial and breast cancer cells. Nature of the assay: Scatchard analysis of AP-CXCL14 binding to MDA-MB-231 cells in suspension, bound AP activity; low affinity site.
Assay [2] has the same target. Nature of the assay: Scatchard analysis of AP-CXCL14 binding to MDA-MB-231 cells in suspension, bound AP activity; high affinity site.

As to “alkaline phosphatase-CXCL14 (AP-CXCL14) fusion protein, AP located N-terminal of the CXCL14 (from UniProt O95715 35-111) (ligand)”, the equilibrium dissociation constant (Kd) (in general, the concentration at which binding is half-saturated) in assay [1] was 0.567 µM; in assay [2], 0.061 µM.
